This is an account of results in patent publication US20240218071A1 (ANHUI BIOX VISION BIOLOGICAL TECHNOLOGY, published 2024).

Read-outs that look alike come from different tables or passages of the source.

Assay [1] addresses T1, human CD40 expressed on the cell surface (human, UniProt P25942 21-277).
T1 construct: whole, on cells; Used for transfected CHO-K cells, for transfected Jurkat reporter cells (Met1-Gln277) and for the natural CD40 on Ramos cells and iDC; also called CHO-K-huCD40 cells; CHO cells expressing CD40
Description: flow cytometry on CHO-K-huCD40 cells, APC anti-human IgG Fc secondary antibody. As to the method:
(§1) To confirm the binding activity and cross-reactivity of the full-length anti-CD40 antibody prepared in example 1.4 of the present invention to CD40, CHO-K-huCD40 cells or CHO-K-cynoCD40 cells were seeded into a 96-well plate at 1.0×10⁵ cells/well. 100 μL of diluted anti-CD40 candidate antibody prepared in example 1.4 was added to the 96-well plate. […] Then, the cells were washed, and the binding of the full-length anti-CD40 antibody to CD40 molecules expressed on the cell was detected by flow cytometry.
(In general: Flow cytometry measures light scatter and fluorescence of single cells or particles in a stream.)

Assay [2] addresses T1, human CD40 expressed on the cell surface. Put plainly: cell-based or functional assay.
The target of assay [3] is T2, full-length mouse CD40 expressed on CHO-K cells (mouse, UniProt P27512 20-289).
T2 construct: whole, on cells; also called CHO-K-mouseCD40 cells; mouse CD40 antigen
T2 sequence (P27512 20-289): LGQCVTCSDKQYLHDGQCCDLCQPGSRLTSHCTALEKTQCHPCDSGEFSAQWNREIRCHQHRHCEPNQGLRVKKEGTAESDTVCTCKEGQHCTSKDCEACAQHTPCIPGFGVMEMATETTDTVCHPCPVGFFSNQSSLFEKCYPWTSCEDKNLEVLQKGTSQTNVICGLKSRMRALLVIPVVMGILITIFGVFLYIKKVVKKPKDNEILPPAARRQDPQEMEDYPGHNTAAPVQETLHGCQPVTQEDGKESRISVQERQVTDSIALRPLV
Put plainly: flow cytometry on CHO-K-mouseCD40 cells, FITC anti-human IgG Fc secondary antibody. How it is done: The cross-reactivity of the affinity variant candidate antibody prepared in example 4.3 to mouse CD40 was tested using artificially constructed CHO-K cells expressing full-length mouse CD40 (Uniprot #P27512) (CHO-K-mouseCD40 cells). The CHO-K cells expressing mouse CD40 were seeded into a 96-well plate at 1.0×10⁵ cells/well. 100 μL of diluted affinity variant candidate antibody and the control antibody (APX005) were added to the 96-well plate, respectively. […] The cells were then washed and tested by flow cytometry.

Assay [4] concerns the target T3, P17-His protein (human CD40 antigen) (human, UniProt P25942 21-193, limits assumed).
T3 construct: also called human CD40 antigen (P17-His)
Description: BLI (Fortebio Octet RED96), antibody on Protein A sensor, P17-His 5-40 nM. As to the method:
In this example, the affinity of C8 parent antibody (C8-WT) and affinity variant antibody for human CD40 antigen (P17-His) was detected using an Fortebio Octet RED96 instrument.
Material preparation: 1 g of BSA and 500 μL of Tween 20 were added to 1000 mL of 1×PBS and mixed uniformly. The mixture was filtered, and then subpackaged and stored. 0.1 mL of glycine solution (0.1 M, pH 2.0) was pipetted, 0.9 mL of ultrapure water was added, and the mixture was mixed uniformly. The antibodies were diluted to 10 μg/mL with a KB buffer, and the antigens were diluted with a KB buffer to serial concentration gradients, i.e., 40 nM, 20 nM, 10 nM, 5 nM and 0 nM.
Experiment procedure: The sample plate (GreinierBio, PN655209) was tested after a sensor (Protein A sensor) was pre-wetted in the dark for at least 10 min, and after confirming the accuracy, the test was performed according to the preset programs. KB buffer was added at 200 μL/well to the wells of columns 1, 10 and 12 of sample plate 1; the glycine solution (0.01 M, pH 2.0) was added to the wells of column 11; the prepared sample solution was added to the wells of columns 2-8 (5 replicate wells for one sample); and P17-His was sequentially added to the wells of column 9 in a descending order of the concentration.

For assay [5], the target named is T1, human CD40 expressed on the cell surface. Description: flow cytometry on CHO-K-huCD40 cells, APC anti-human IgG secondary antibody. As to the method:
(§2) 100 μL of diluted anti-CD40 candidate antibody prepared in example 4.3 was added to the 96-well plate. After incubation at 4° C. for 30 min, the cells were washed 5 times with a FACS buffer (PBS+5% FBS+2% BSA), added with 100 μL of APC-labeled anti-human IgG secondary antibody, and then incubated at 4° C. for 30 min. The cells were then washed and tested by flow cytometry.

In assay [6] the target is T4, cynomolgus monkey CD40 expressed on the cell surface (cynomolgus monkey, UniProt G7PG38 21-278).
T4 construct: also called CHO-K-cynoCD40 cells
T4 sequence (G7PG38 entry or part of it limits assumed): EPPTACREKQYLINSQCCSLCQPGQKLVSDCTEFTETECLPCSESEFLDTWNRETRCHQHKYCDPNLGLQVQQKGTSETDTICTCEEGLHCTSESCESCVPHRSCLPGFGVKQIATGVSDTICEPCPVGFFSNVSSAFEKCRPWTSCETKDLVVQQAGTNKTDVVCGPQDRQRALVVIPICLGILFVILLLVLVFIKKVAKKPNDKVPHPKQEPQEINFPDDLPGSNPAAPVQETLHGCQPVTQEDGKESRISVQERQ
Description: flow cytometry on CHO-K-cynoCD40 cells, APC anti-human IgG Fc secondary antibody. As to the method:
as §1

Assay [7] concerns the target T2, full-length mouse CD40 expressed on …. Description: flow cytometry on CHO-K-mouseCD40 cells, FITC anti-human IgG Fc secondary antibody. As to the method: Similarly to example 1.3, CHO-K cells expressing full-length mouse CD40 (Uniprot: P27512) (hereinafter also referred to as “CHO-K-mouseCD40 cells”) were prepared. The cross-reactivity of the candidate C8 full-length anti-CD40 antibody prepared in example 1.4 to mouse CD40 was tested using the CHO-K-mouseCD40 cells. The CHO-K-mouseCD40 cells were seeded into a 96-well plate at 1.0×10⁵ cells/well. 100 μL of diluted anti-CD40 candidate antibody and two control antibodies (Dacetuzumab and APX005) were added to the 96-well plate, respectively. […] The cells were then washed and tested by flow cytometry.
This is another data set of the same source.

In assay [8] the target is T1, human CD40 expressed on the cell surface. Put plainly: flow cytometry on CHO-K-huCD40 cells, APC anti-human IgG secondary antibody. As to the method: as §2
The source holds these as a separate data set.

In assay [9] the target is T4, cynomolgus monkey CD40 expressed on the …. Put plainly: flow cytometry on CHO-K-cynoCD40 cells, APC anti-human F(ab')2 secondary antibody. As to the method:
The CHO-K-huCD40 cells or CHO-K-cynoCD40 cells were seeded into a 96-well plate at 1.0×10⁵ cells/well, and diluted C8 anti-CD40 Fab candidate molecules were added. […] Then, the cells were washed, and the binding of the C8 anti-CD40 Fab candidate molecules to CD40 molecules expressed on the cell surface was detected by flow cytometry (Beckman Coulter).

Assay [10] deals with T5, P17-Fc fusion protein (human CD40 extracellular domain fused to human IgG1 Fc) (human, UniProt P25942 21-193, limits assumed).
T5 construct: CD40 ECD at the N-terminus of the human IgG1 Fc; expressed in CHO-K cells; also called CD40 ECD-Fc fusion protein; CD40 antigen P17-Fc; not shown: human IgG1 Fc fragment
T5 sequence (P25942 21-193 limits assumed): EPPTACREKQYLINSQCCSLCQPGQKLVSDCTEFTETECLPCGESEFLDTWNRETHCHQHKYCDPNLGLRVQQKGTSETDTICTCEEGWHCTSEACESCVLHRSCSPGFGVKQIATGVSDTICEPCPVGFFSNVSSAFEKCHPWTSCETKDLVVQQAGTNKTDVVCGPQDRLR
Put plainly: ELISA of Fab on P17-Fc. Background: An ELISA detects its analyte on a solid surface through an enzyme-linked reagent.

T3 sequence (P25942 other isoform, or with tags, fused parts or gaps limits assumed): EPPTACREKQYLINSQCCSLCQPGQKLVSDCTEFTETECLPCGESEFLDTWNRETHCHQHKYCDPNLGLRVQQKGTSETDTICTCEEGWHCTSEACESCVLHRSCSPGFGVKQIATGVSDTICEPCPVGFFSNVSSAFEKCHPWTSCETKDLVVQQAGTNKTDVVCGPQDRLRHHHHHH
T1 sequence (P25942 21-277): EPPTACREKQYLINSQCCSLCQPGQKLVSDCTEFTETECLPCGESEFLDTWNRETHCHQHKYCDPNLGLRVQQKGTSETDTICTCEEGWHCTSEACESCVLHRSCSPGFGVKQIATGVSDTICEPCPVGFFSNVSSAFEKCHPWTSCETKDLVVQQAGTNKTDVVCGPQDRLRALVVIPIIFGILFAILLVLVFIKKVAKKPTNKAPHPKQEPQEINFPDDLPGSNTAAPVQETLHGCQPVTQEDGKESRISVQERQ

B1: Dacetuzumab (antibody, V domains shown)
VH: EVQLVESGGGLVQPGGSLRLSCAASGYSFTGYYIHWVRQAPGKGLEWVARVIPNAGGTSYNQKFKGRFTLSVDNSKNTAYLQMNSLRAEDTAVYYCAREGIYWWGQGTLVTVSS
VL: DIQMTQSPSSLSASVGDRVTITCRSSQSLVHSNGNTFLHWYQQKPGKAPKLLIYTVSNRFSGVPSRFSGSGSGTDFTLTISSLQPEDFATYFCSQTTHVPWTFGQGTKVEIKR
Consider B1, for which, in assay [1], the “EC50 (read off the curve)” value is ~0.8 µg/mL.

B2: C8-11 antibody (antibody, V domains shown)
VH: EVQLLESGGGLVRPGGSLRLSCAASGFTPGSYEMNWVRQAPGKGLEWVSYISSAGETTDYADSVKGRFTVSRDNSKNLLYLQMNSLRAEDTAVYYCARDVFFFDSSGDNGAYGMDVWGQGTMVTVSS
VL: DIQLTQSPSSLTASVGDRVTITCRSSQGIRSSLAWYQQKPGKPPKLLIYGASSLLGGVPSRFSGSGSGTDFTLTISSLQPEDFATYYCQQLNSFPSTFGQGTKLEIK
Consider B2, for which the “CD95 expression on Ramos cells without crosslinking agent (FACS)” value in [2] was ~10 times weaker than APX005. Moreover, the binding result in assay [3] is “binds”. In addition, in assay [4], the Kd stood at 9.24 nM, the off-rate (koff) came out at 0.0148 s⁻¹ and the kon worked out at 1.6e+06 M⁻¹ s⁻¹. Moreover, the “EC50 (read off the curve)” value in assay [5] is ~2 µg/mL.

B3: C8 clone anti-CD40 full-length antibody (antibody, human IgG1, kappa, V domains shown)
VH: EVQLLESGGGLVRPGGSLRLSCAASGFTFGSYEMNWVRQAPGKGLEWVSYISSSGETTDYADSVKGRFTVSRDNSKNLLYLQMNSLRAEDTAVYYCARDVFFFDSSGDNGAYGMDVWGQGTMVTVSS
VL: DIQLTQSPSSLTASVGDRVTITCRSSQGIRSSLAWYQQKPGKPPKLLIYGASSLEGGVPSRFSGSGSGTDFTLTISSLQPEDFATYYCQQLNSFPSTFGQGTKLEIKR
notes: also called C8-WT; C8 parent antibody
B3: the binding result in assay [6] and in assay [7] was “binds” in each case. For the same molecule, the “EC50 (read off the curve)” value is ~0.8 µg/mL in assay [1], ~0.9 µg/mL in [5] and ~0.8 µg/mL in assay [8]. Besides, in [4], the dissociation constant Kd came to 19.3 nM. In assay [4], this molecule returned a dissociation rate constant (koff) of 0.0164 s⁻¹. The kon in [4] came out at 853000 M⁻¹ s⁻¹.

B4: C8 clone anti-CD40 Fab molecule (Fab, V domains shown)
VH: EVQLLESGGGLVRPGGSLRLSCAASGFTFGSYEMNWVRQAPGKGLEWVSYISSSGETTDYADSVKGRFTVSRDNSKNLLYLQMNSLRAEDTAVYYCARDVFFFDSSGDNGAYGMDVWGQGTMVTVSS
VL: DIQLTQSPSSLTASVGDRVTITCRSSQGIRSSLAWYQQKPGKPPKLLIYGASSLEGGVPSRFSGSGSGTDFTLTISSLQPEDFATYYCQQLNSFPSTFGQGTKLEIK
notes: Expressed as a Fab fragment in CHO-K cells; also called C8 Fab; C8 clone Fab
Take B4: the binding result in assay [9] is “binds”. Also, the EC50 in assay [10] is ~0.476 µg/mL.

One may read the EC50 (read off the curve) as the midpoint of the concentration-response curve. As usually defined, the Kd is the concentration at which binding is half-saturated. As usually defined, the koff is the rate constant with which the complex falls apart. A word on the kon: it is a measure of how fast the partners come together. As a reminder, the EC50 is the concentration at which the effect is half-maximal.
